From patent US20200392528A1, “IMPROVED PLANT EPSP SYNTHASES AND METHODS OF USE” (PIONEER HI-BRED INTERNATIONAL, INC., priority 2017, published 2020) come the findings set out here.

In data set [1] the test system is rice EPSPS. Put plainly: kcat gly: enzyme turnover under application conditions, rice orthologs. Particulars: Table 5. The data set is classed as biochemical, rice (Oryza sativa). The procedure: (§1) A more straight-forward, accurate and meaningful parameter is one in which one rate measurement is performed under presumed in vivo conditions, if known. To establish a set of conditions that mimic those under which the mutated enzyme needs to perform, the concentrations of PEP and S3P were set low (30 uM, subject to the sensitivity of assay conditions) to approach the presumed intracellular concentrations (˜15 uM, the approximate values of KM for both PEP and S3P). Glyphosate is included at 1 mM. The pH is set at 7.0 and ionic strength at 100 mM KCl, also to mimic known in vivo conditions. Ethylene glycol is present at 5% (v/v) to approximate the dielectric constant of intracellular fluid. The parameter is termed “enzyme turnover under application conditions”, which is herein shortened to “kcat gly”. The conventional formatting of the expression “kcat” is not used, to avoid this term being characterized as a standard kinetic constant.
EPSPS activity was determined by quantifying the phosphate generated from the EPSPS reaction. Release of inorganic phosphate was coupled to its reaction with 2-amino-6-mercapto-7-methylpurine ribonucleoside (MESG), catalyzed by purine nucleoside phosphorylase, according to previously described protocols. To determine the kcat gly, enzyme preparations were normalized to 0.1 mg/ml and four- to six-microliter aliquots of normalized enzyme were added to the wells of a low UV-absorbing 96-well assay plate (Greiner UV-Star). Reactions were started with the addition of 2×147 μl of reaction mixture containing 25 mM Hepes, pH 7.0, 100 mM KCl, 5% ethylene glycol, 30 μM each of PEP and S3P, 0.15 mM MESG, 1.5 U/ml purine nucleoside phosphorylase (Sigma N8264) and 1 mM glyphosate. Absorbance was monitored at 4 sec intervals for 50 sec with a Spectramax plate reader (Molecular Devices). […] Division by the enzyme concentration (0.04 to 0.1 uM, depending on activity) yields “kcat gly” in units of min^−1.
Only variable positions are shown. Naturally occurring differences in the rice sequence from the maize sequence are shown. The mutations designed to create rice orthologs of selected maize variants are shown. Genes designed to encode the rice orthologs were synthesized by a commercial provider and expressed and purified as described above.
Fitness is indicated by the parameter kcat gly, defined in Example 1.

In data set [2] the test system is soybean EPSPS. Put plainly: kcat gly: enzyme turnover under application conditions, soybean variants. Type of data set: biochemical. Particulars: for kcat gly: soybean variants. The procedure:
as §1
EPSPS activity was determined by quantifying the phosphate generated from the EPSPS reaction. Release of inorganic phosphate was coupled to its reaction with 2-amino-6-mercapto-7-methylpurine ribonucleoside (MESG), catalyzed by purine nucleoside phosphorylase, according to previously described protocols. To determine the kcat gly, enzyme preparations were normalized to 0.1 mg/ml and four- to six-microliter aliquots of normalized enzyme were added to the wells of a low UV-absorbing 96-well assay plate (Greiner UV-Star). Reactions were started with the addition of 2×147 μl of reaction mixture containing 25 mM Hepes, pH 7.0, 100 mM KCl, 5% ethylene glycol, 30 μM each of PEP and S3P, 0.15 mM MESG, 1.5 U/ml purine nucleoside phosphorylase (Sigma N8264) and 1 mM glyphosate. Absorbance was monitored at 4 sec intervals for 50 sec with a Spectramax plate reader (Molecular Devices). […] Division by the enzyme concentration (0.04 to 0.1 uM, depending on activity) yields “kcat gly” in units of min^−1. […]
A library was constructed and screened as above. […] The library was constructed, screened and evaluated by the methods described in Examples 1 and 2.

B1: Os D2-67: rice EPSPS ortholog of Zm D2-67, SEQ ID NO: 17 (protein, listed as Oryza sativa)
chain: MRKWEEIVLQPIREISGAVQLPGSKSLSNRILLLSALSEGTTVVDNLLNSEDVHYMLEALKALGLSVEHDKVAKRAVVVGCGGRFPVEKDAKGEVQLFCGNAATAMRPLTAAVTAAGGNATYVLDGVPRMRERPIGDLVVGLKQLGADVDCFLGTECPPVRVKGIGGLPGGKVKLSGSISSQYLSALLMAAPLALGDVEIEIIDKLISLPYVEMTLRLMERFGVKAEHSDSWDRFYIKGGQKYESPGNAYVEGDASSASYFLAGAAITGGTVTVQGCGTTSLQGDVKFAEVLEMMGAKVTWTDTSVTVTGPPREPYGKKHLKAVDVNMNKMPDAAMTLAVVALFADGPTAIRDVASWRVKETERMVAIRTELTKLGASVEEGPDYCIITPPPKLNITAIDTYGDHRMAMAFSLAACADVPVTIRDPGCTRKTFPNYFDVLSTFVRN
Take B1: the kcat gly in data set [1] is 102 min⁻¹.

B2: Os D2: rice EPSPS ortholog of Zm D2, SEQ ID NO: 16 (protein, listed as Oryza sativa)
chain: MRKWEEIVLQPIREISGAVQLPGSKSLSNRILLLSALSEGTTVVDNLLNSEDVHYMLEALKALGLSVEHDKVAKRAVVVGCGGRFPVEKDAKGEVQLFCGNAATAMRPLTAAVTAAGGNATYVLDGVPRMRERPIGDLVVGLKQLGADVDCFLGTECPPVRVKGIGGLPGGKVKLSGSISSQYLSALLMAAPLALGDVEIEIIDKLISLPYVEMTLRLMERFGVKAEHSDSWDRFYIKGGQKYESPGNAYVEGDASSASYFLAGAAITGGTVTVQGCGTTSLQGDVKFAEVLEMMGAKVTWTDTSVTVTGPPREPYGKKHLKAVDVNMNKMPDAAMTLAVVALFADGPTAIRDVASWRVKETERMVAIRTELTKLGASVEEGPDYCIITPPPKLNITAIDTYGDHRMAMAFSLAACADVPVTIRDPGCTRKTFPNYFDVLSTFVRN
With B2, in data set [1], the kcat gly worked out at 89.0 min⁻¹.

B3: Os F3: rice EPSPS ortholog of Zm F3, SEQ ID NO: 18 (protein, listed as Oryza sativa)
chain: MAKAEEIVLQPIREISGAVQLPGSKSLSNRILLLSALSEGTTVVDNLLNSEDVHYMLEALKALGLSVEADKVAKRAVVVGCGGKFPVEKDAKEEVQLFCGNAATAMRPLTAAVTAAGGNATYVLDGVPRMRERPIGDLVVGLKQLGADVDCFLGTECPPVRVKGIGGLPGGKVKLSGSISSQYLSALLMAAPLALGDVEIEIIDKLISIPYVEMTLRLMERFGVKAEHSDSWDRFYIKGGQKYKSPGNAYVEGDASSASYFLAGAAITGGTVTVQGCGTTSLQGDVKFAEVLEMMGAKVTWTDTSVTVTGPPREPYGKKHLKAVDVNMNKMPDVAMTLAVVALFADGPTAIRDVASWRVKESERMVAIRTELTKLGASVEEGPDYCIITPPEKLNITAIDTYGDHRMAMAFSLAACADVPVTIRDPGCTRKTFPNYFDVLSTFVRN
For the molecule B3, in data set [1], the kcat gly came out at 39.0 min⁻¹.

B4: Gm F3: soybean EPSPS variant from combinatorial library, SEQ ID NO: 13 (protein)
chain: MAAAEKPSTSPEIVLEPIKDFSGTITLPGSKSLSNRILLLAALSEGTTVVDNLLYSEDIHYMLGALRTLGLRVEDDKTTKQAIVEGCGGLFPTSKESKDEINLFCGNAATAMRPLTAAVVAAGGNASYVLDGVPRMRERPIGDLVAGLKQLGADVDCFLGTNCPPVRVNGKGGLPGGKVKLSGSVSSQYLTALLMAAPLALGDVEIEIVDKLISVPYVEMTLKLMERFGVSVEHSGNWDRFLVHGGQKYKSPGNAFVEGDASSASYLLAGAAITGGTITVNGCGTSSLQGDVKFAEVLEKMGAKVTWSENSVTVSGPPRDFSGRKVLRGIDVNMNKMPDVAMTLAVVALFANGPTAIRDVASWRVKESERMIAICTELRKLGATVEEGPDYCVITPPEKLNVTAIDTYGDHRMAMAFSLAACGDVPVTIKDPGCTRKTFPDYFEVLERLTKH
modifications: Glycine max
In the case of B4, the kcat gly in data set [2] was determined as 56.3 min⁻¹.

B5: Gm F3-V340A: soybean EPSPS variant Gm F3 with V340A, SEQ ID NO: 14 (protein)
chain: MAAAEKPSTSPEIVLEPIKDFSGTITLPGSKSLSNRILLLAALSEGTTVVDNLLYSEDIHYMLGALRTLGLRVEDDKTTKQAIVEGCGGLFPTSKESKDEINLFCGNAATAMRPLTAAVVAAGGNASYVLDGVPRMRERPIGDLVAGLKQLGADVDCFLGTNCPPVRVNGKGGLPGGKVKLSGSVSSQYLTALLMAAPLALGDVEIEIVDKLISVPYVEMTLKLMERFGVSVEHSGNWDRFLVHGGQKYKSPGNAFVEGDASSASYLLAGAAITGGTITVNGCGTSSLQGDVKFAEVLEKMGAKVTWSENSVTVSGPPRDFSGRKVLRGIDVNMNKMPDAAMTLAVVALFANGPTAIRDVASWRVKESERMIAICTELRKLGATVEEGPDYCVITPPEKLNVTAIDTYGDHRMAMAFSLAACGDVPVTIKDPGCTRKTFPDYFEVLERLTKH
modifications: Glycine max
On to B5, for which the “fitness (kcat gly) compared with Gm F3” value in data set [2] is recorded as “significant fitness improvement”.

B6: Gm F3-02-A7: soybean EPSPS variant, SEQ ID NO: 15 (protein)
chain: MAAAEKPSTSPEIVLEPIKDFSGTITLPGSKSLSNRILLLAALSEGTTVVDNLLYSEDIHYMLGALRTLGLRVEDDKTTKQAIVEGCGGLFPTSKESKDEINLFCGNAATAMRPLTAAVVAAGGNASYVLDGVPRMRERPIGDLVAGLKQLGADVDCFLGTNCPPVRVNGKGGLPGGKVKLSGSVSSQYLTALLMAAPLALGDVEIEIVDKLISVPYVEMTLKLMERFGVSVEHSGNWDRFLVHGGQKYKSPGNAFVEGDASSASYLLAGAAITGGTITVNGCGTSSLQGDVKFAEVLEKMGAKVTWSENSVTVSGPPRDFSGRKVLRGIDVNMNKMPDAAMTLAVVALFANGPTAIRDVASWRVKESERMIAICTELRKLGATVEEGPDYCVITPPEKLNVTAIDTYGDHRMAMAFSLAACGDVPVTIKDPGCTRKTFPDYFEVLERLTKH
modifications: Glycine max
Consider B6, for which the kcat gly in data set [2] came out at 80.3 min⁻¹.

B7: Os F3-88: rice EPSPS ortholog of Zm F3-88, SEQ ID NO: 19 (protein, listed as Oryza sativa)
chain: MAKAEEIVLQPIREISGAVQLPGSKSLSNRILLLSALSEGTTVVDNLLNSEDVGYMLEALKALGLSVEADKVAKRAVVVGCGGKFPVEKDAKEEVQLFCGNAATAMRPLTAAVTAAGGNATYVLDGVPRMRERPIGDLVVGLKQLGADVDCFLGTECPPVRVKGIGGLPGGKVKLSGSISSQYLSALLMAAPLALGDVEIEIIDKLISIPYVEMTLVLMERFGVKAYHSDSWDRFYIKGGQKYKSPGNAYVEGDASSASYFLAGAAITGGTVTVQGCGTTSLQGDVKFAEVLEMMGAAVTWTDTSVTVTGPPREPYGKKHLKAVDVNMNKMPDAAMTLAVVALFADGPTAIRDVASWRVKESERMVAIRTELTKLGASVEEGPDYCIITPPEKLNITAIDTYGDHRMAMAFSLAACADVPVTIRDPGCTAKTFPNYFDVLSTFVRN
B7: in data set [1], the kcat gly stood at 62.3 min⁻¹.
